molecular target: HLA-A*02:01; assay: IEDB peptide-MHC binding, purified MHC/competitive/radioactivity; ≥ and ≤ were set here for values at or beyond the usual limits of such assays; conditions: source organism: Vaccinia virus WR

Sequence	IC50
MLYQLLEAV	8.2 nM

molecular target: HLA-A*02:01; assay: IEDB peptide-MHC binding, cellular MHC/competitive/fluorescence; ≥ and ≤ were set here for values at or beyond the usual limits of such assays; conditions: source organism: Mammarenavirus brazilense

Sequence	IC50
AINIALIAV	8.3 µM

same assay, conditions: source organism: Mammarenavirus machupoense

Sequence	IC50
SVVQALTSL	9.24 µM

same assay, conditions: source organism: Mammarenavirus whitewaterense

Sequence	IC50
LQFIVFLLL	51.6 µM

same assay, conditions: source organism: Vaccinia virus WR

Sequence	IC50
MQRISGSNIV	13 µM
KVRIFINDRM	39.7 µM
EVFHCMDIL	12 µM
PVDDGPDDET	15.2 µM
KIEPRNILI	8.32 µM
MTENVEEDL	22.1 µM
NIGKIIMSL	7.04 µM
VATDPDADA	≥ 70 µM
IVLPNKVRI	35.1 µM
IVTLQKVLHV	32.9 µM
LTSGEYKQCL	20.2 µM
DTQQHPIVV	13.9 µM
GAMVEYVST	24.8 µM
GASYISCTA	7.35 µM
LVKLSSYHVV	14.4 µM
DIVSKLTFL	7.81 µM
DISMSLYKDL	9.88 µM
MIKVGNCDET	≥ 70 µM
IVGLDLENL	14.2 µM
ETSFNDKQKV	≥ 70 µM
SINSATESDA	32.7 µM
IIKKNDIVRV	48.4 µM
LTAVEHIPT	≥ 70 µM
TIGNQLYLT	18.3 µM
LARNLGLVDI	≥ 70 µM
DIVGLDLENL	16.6 µM

Sequence	IC50
DIEPDLENNL	54.4 µM
ILRSIEGEL	8.99 µM
ELMPIRTDTT	11.7 µM
LVVSTKGDV	25.8 µM
SVDCNKELM	11.2 µM
SIVVELEPSL	7.93 µM
DAAVAVAAA	5.2 µM
EVFINDNGI	≥ 70 µM
MIKERRQITM	24.9 µM
QQPIKKDCMV	18.5 µM
HIDYNEDMIT	51.4 µM
FLDDSNKRKV	8.41 µM
MVISLLSMIT	9.75 µM
AIFTDASTVA	18.5 µM
SVVTLLCVL	14.7 µM
LIKKPYRSI	59.4 µM
IAMKVIQGI	7.73 µM
RIVVYNPSTM	≥ 70 µM
ELTASGGKV	49.8 µM
KTKYYKFDYI	51.5 µM
EINNELELV	8.27 µM
GTVINEDIV	35.7 µM
CIRISMVISL	6.22 µM
TLPSIFLIIT	9.73 µM
FTNKRTRGPL	16.2 µM
VTSSGAIYKL	16.1 µM

Sequence	IC50
SVFYRGAENI	20.8 µM
STLPNKSDV	≥ 70 µM
NIHNHMIKV	6.46 µM
DLEKYFYGEI	≥ 70 µM
ITDAAVAVA	8.52 µM
MLYQLLEAV	14.9 µM
RIKIDKLRQI	≥ 70 µM
NAECQPLQL	14.3 µM
GIPITIRVT	18.7 µM
EQRSTAYEI	8.92 µM
CVDNHLGAT	52.1 µM
IVMTPSPFYT	6.46 µM
LTAVEHIPTM	7.83 µM
ELFIKALSDA	10.9 µM
TQHPDYAILA	6.73 µM
TMPTYKHLI	27.3 µM
KQTFGSLPA	18.9 µM
KAMCNTRDT	51.6 µM
IATYIDALA	12.4 µM
SAKRITESIT	≥ 70 µM
DLVKSYSLI	≥ 70 µM
DANVVSSSTI	≥ 70 µM
ELEPSLATFI	11.2 µM
DLYNGGRIDM	29.5 µM
ILSIVGFRPT	38.1 µM
VANVVNHVLT	≥ 70 µM

Sequence	IC50
PTELKETLL	≥ 70 µM
LVATDPDADA	≥ 70 µM
KTFMLPKQDI	33.6 µM
LQKFSFKIAI	≥ 70 µM
TVMNNLSELT	11.9 µM
PIKFIAEFL	8.24 µM
IVRCCAGDDI	10.7 µM
IVEHLRDQSI	≥ 70 µM
AAASSTHRKV	≥ 70 µM
QMNARGVKV	5.14 µM
ATLGPANRI	17 µM
IIERSKKFI	5.31 µM
LTVSFIDET	≥ 70 µM
AVCNLASVA	17.8 µM
SQSTDIVCET	26 µM
AVEHIPTMKI	14.3 µM
DQYKFHKLL	16 µM
STAVNEEWLT	25.4 µM
TIQESFIRFT	≥ 70 µM
LTDSLSSQMT	11.9 µM
FTNLLSKNT	13.1 µM
ELDTLAAEI	9.53 µM
DACKKILSA	14.4 µM
NQCMSANEA	13.3 µM
CMSANEAAIT	6.71 µM
DIRTLLPILL	50.6 µM

Sequence	IC50
PAAMYQYIFL	5.57 µM
PINAPIKTFM	7.62 µM
DMLNIMNKL	5.12 µM
VTFNPVSDI	46.3 µM
QQKKCKYCI	38.8 µM
LTFLSGGDL	18.8 µM
SQSERDNYIT	≥ 70 µM
DALAKNASEL	61.8 µM
ELQKFSFKIA	≥ 70 µM
VIFLISVIV	13.6 µM
IVLSNTSTA	16.9 µM
IQQLYEFRKV	8.74 µM
RQSSCKMAL	42.7 µM
DAFSREYSMT	≥ 70 µM
KVTINNLKM	5.74 µM
SIPLMKRLT	≥ 70 µM
SATESDAIRT	≥ 70 µM
LTKIDTTHV	14 µM
LLKDLFPKQT	≥ 70 µM
ILYKVRKNFT	7.65 µM
TVPTMNNAKL	41.7 µM
DMPSLSNGLI	43 µM
GTETKITFA	60.6 µM
ILFLLFVCI	5.69 µM
EAAITDAAVA	26.3 µM
DLVVLGKVT	53.3 µM

Sequence	IC50
STSITVNEV	12.6 µM
VTDTINTVL	13.6 µM
EVRKYFCVKT	23.2 µM
ELVNLIQAKT	≥ 70 µM
MIVLPNKVRI	≥ 70 µM
IAHLLEHLLI	15.7 µM
FINDRMKKDI	≥ 70 µM
NTDSEMDQRL	≥ 70 µM
QLKGFYMISL	9.02 µM
DIRTLLPIL	37.6 µM
ITPDVIINST	≥ 70 µM
IVARRKDQT	≥ 70 µM
TVTNLISET	31.1 µM
LAGYILTVL	11.6 µM
EIPTRTLDTA	59 µM
VTINNLKMM	9.06 µM
KLSKLTDKKT	≥ 70 µM
DILANRDSTL	34.5 µM
EATYHIIIV	11 µM
MQRISGSNI	9.8 µM
IVVELEPSLA	9.09 µM
KVDVELFIKA	8 µM
TLTGSPSST	28.6 µM
SVNKFKFGAA	≥ 70 µM
IINRDIIVI	10.8 µM
NQCMSANEAA	67.6 µM

Sequence	IC50
TVTNLISETL	16.6 µM
SATVYGDKI	12.9 µM
KTFIIHKNL	9.47 µM
GTLDFFKQT	49.5 µM
PVSTNGKIV	≥ 70 µM
SIRIKIDKL	16.5 µM
DAYNIADAA	≥ 70 µM
DIPVNNNIVL	≥ 70 µM
DIYYNGNKML	19.6 µM
VALTIMGVI	8.94 µM
IIPSSIPVST	17.1 µM
TIIERSKKFI	45.1 µM
TAVNEEWLTA	25 µM
IVVYNPSTM	56.2 µM
KTLDFKSKKV	52.8 µM
NTCLRCSKL	24.6 µM
VTLQKVLHVT	35.9 µM
RTNRNELFQL	31.2 µM
LITSAFDLL	30.3 µM
VIGASYISCT	17.8 µM
NIIMKTPGNT	8.14 µM
QISQCQRINM	19 µM
VIYPNFSKA	14.2 µM
QQKCDMPSL	25 µM
GVKIRTKIPL	12.7 µM
AIDFGNGADL	46.8 µM

Sequence	IC50
ITFALKKLI	≥ 70 µM
ELEEMVDKGT	≥ 70 µM
DIGTVKDGRL	≥ 70 µM
IAFSSGTVI	43.9 µM
ETVSTIDGRI	≥ 70 µM
HIHKILTREM	16.2 µM
ELPYDENGI	8.48 µM
LIVRLNQCM	19.8 µM
TTTSEVVDM	10 µM
PMNVDNLIM	17.4 µM
TASGGKVLIT	≥ 70 µM
MTPENDEEQT	≥ 70 µM
SVEPYTSNI	17.3 µM
NVVSSSTIAT	≥ 70 µM
LTNVVNISTI	≥ 70 µM
AASKQQMLM	≥ 70 µM
NVEEDLARNL	≥ 70 µM
SLKRNAEGI	≥ 70 µM
MVSIDEVAST	36.8 µM
GIRVKHSFSA	6.87 µM
TASGGKVLI	37.2 µM
GVSDLISTEI	41.8 µM
TLPNKSDVLI	5.32 µM
EVVVFGEAV	13.4 µM
STNFLANAST	≥ 70 µM
YVTLNASQYA	23.1 µM

Sequence	IC50
AIMFKDDNI	9.74 µM
IIRQRNDEI	52.8 µM
TMSTPMTEYI	7.95 µM
IIIVALTIM	9.64 µM
KLIIDREVV	6.63 µM
IVIYPNFSKA	9.76 µM
KQRTPGIITI	53.2 µM
SISIKLTDSL	6.24 µM
PAVVYSTCT	5.5 µM
GIAHLLEHLL	7.4 µM
YVESKLVDI	25.3 µM
VVKYLSGGGI	≥ 70 µM
PTLDNILGI	6.67 µM
TTDNKITSI	11.5 µM
LTASGGKVLI	≥ 70 µM
DLSKLSKDVV	≥ 70 µM
STNGKIVMT	≥ 70 µM
DVELFIKAL	≥ 70 µM
VLTTPGLNHA	≥ 70 µM
VTLNAGNIDI	12.9 µM
SIDRLSLNRT	5.1 µM
NAKCIEYVTL	38 µM
SLVSYIKTT	5.37 µM
PTRTLDTAI	≥ 70 µM
KITFALKKLI	64.7 µM
KQQKKCKYCI	56.4 µM

Sequence	IC50
ATVMNNLSEL	11 µM
HLNPSRIRIT	≥ 70 µM
IMKTPGNTDA	9.42 µM
TMDGDKLSKL	≥ 70 µM
NIVWEKKSL	10.9 µM
PIIFGESSI	34.7 µM
NTIDQTANVV	6.56 µM
EVFHCMDILT	14.8 µM
GIVLSNTSTA	13.1 µM
KLIIDREVVA	15.8 µM
TACNNTIII	11.3 µM
ETDRENAII	67.3 µM
DMPSLSNGL	47.2 µM
EIPTRTLDT	5.98 µM
MQHPREENSI	27.4 µM
DLSKLSKDV	6.36 µM
ETMPCVKKKA	≥ 70 µM
IVRLNQCMSA	7.46 µM
NQHNIIVEHL	≥ 70 µM

— the Immune Epitope Database (IEDB)
